Here are results for 21 sequences from the DeepSol protein solubility set.

A short description of the data set: soluble on expression in E. coli; label from the status in PepcDB or PDB records.
Take “MSLENHWYEVKQTQSEGFFKDLNGSRTKESISYFPKIYYRMKDGLLSIRVQISLGKYQDQLLKLEKKLESGLYCELVEKELKDSYVDYTLLYDMIANRIGIEEAVVENGALRLMKNQVWAYDFLPHMLIAGGTGGGKTYFLLTIIEALLKSDAELFILDPKNADLADLGTIMTHVYSQKEQISACVEDFYERMMVRSRLMKEMPNYKTGENYAYLGLSPNFLVFDEYVAYMEMLTTKESAVILNKLKQIVMLGRQSGFFLILACQRPDAKYLGDGIRDQFNFRVALGRMSELGYSMMFGEVDKIFFMKQIKGRGYVDTGGGVVSEFYTPLVPKGYDFLESTKTIVQNNINEGHHHHHH”: the “soluble on expression in E. coli” value is given as “soluble”.

With “MASIKSYKLKNGQERWEYFVSNGRSNGTGRQQKIHKRGFRSHKEALKAAKIIEGQIASEEFVKENPQKMTISKFMNIWINEYKNNVKEGSRIVYRDAIRMYIDPYIGNYQLNKYKPADHQKFINSLFTNKELGKSKNGLSYNTVKIVNAALSNAFKKAQKLGYIKSNPTYFVEFPLDKVKEKTNKEKKLEFYTLEQENLFLDTARNFDDFMWYVFFLIIFDLGLRKGEVMALRWFNFDFRDNILTFDKQRLYRKEQPGQVILDDVKTDAGKRSLKMTNRVRNSVLELYSINYDLTSNVLPMTNSNQDFLFINHRGKNVGLPIRQRSVDTAWHRIIQKANLPKIRIHDGRHTNAARLRQAGVPLEDIKDMLGHKNVKTTEIYAHVSPEVKERAVNKLELYQMQHKKSGN”, the “soluble on expression in E. coli” value is given as “not soluble”.

On to “HDTRKIIAKQLGPHTYLVSGRMEIDDVNERFGLSLPESDDYLTVAGFILNSHQNIPQANEVVEIAPYTFTILRSSSTKIELVKMSIDD”, for which the “soluble on expression in E. coli” value is “not soluble”.

For “MAHHHHHHMCLSTCLLYLKQIREDSQYVIISRIDHKTCYKCISFCNLKYFVVDMIYKNEELYTDLEGIEKLLEEYKEKICCVMSATSVYAPRNSDDIIKIAHICKKYNTPHIINNAFGLQCTYICKEIQKCFESQGRVDFVVQSCDKNFLVPVNGGIIFSSNREQMKLLKKSYPGRTPVNAYLDLFITLLEMGKDKIMNLRKERVDNFNWLKEKIQLLCLKYNLELIKTSKNFISMAINLNHMYTHCNTDNPKVINMLGSMLFYRNVTGHRVICSPLLNRNYLLKKAREKYMNMLENKKGNDAMMITSNESNEENVKRDLSKKEADIYDNMYSNGFDEIKSVENDMLQNKSNIIKAYEKQIEEEFDKLNEPNTIVIGNHKFKNFGSSYNSYPISYIAFSCVVGIERPELENFVSKLDNAIDYFIKFFKKKKEEELK”, the “soluble on expression in E. coli” value is recorded as “not soluble”.

As for “MGGSHHHHHHGDDDDKMTKTFKTLDDFLGTHFIYTYDNGWEYEWYAKNDHTVDYRIHGGMVAGRWVTDQKADIVMLTEGIYKISWTEPTGTDVALDFMPNEKKLHGTIFFPKWVEEHPEITVTYQNEHIDLMEQSREKYATYPKLVVPEFANITYMGDAGQNNEDVISEAPYKEMPNDIRNGKYFDQNYHRLNK”, the “soluble on expression in E. coli” value is recorded as “soluble”.

As to “MPHLALLISKGAIMDRIIQSPGKYIQGADVINRLGEYLKPLAERWLVVGDKFVLGFAQSTVEKSFKDAGLVVEIAPFGGECSQNEIDRLRGIAETAQCGAILGIGGGKTLDTAKALAHFMGVPVAIAPTIASTDAPCSALSVIYTDEGEFDRYLLLPNNPNMVIVDTKIVAGAPARLLAAGIGDALATWFEARACSRSGATTMAGGKCTQAALALAELCYNTLLEEGEKAMLAAEQHVVTPALERVIEANTYLSGVGFESGGLAAAHAVHNGLTAIPDAHHYYHGEKVAFGTLTQLVLENAPVEEIETVAALSHAVGLPITLAQLDIKEDVPAKMRIVAEAACAEGETIHNMPGGATPDQVYAALLVADQYGQRFLQEWE”, the “soluble on expression in E. coli” value is reported as “not soluble”.

As to “MGSDKIHHHHHHMGLGHEQGFGAPCLKCKENCEGFELHFWRKICRNCKCGQEEHDVLLSNEEDRKVGRLFEDTKYTTLIAKLKSDGIPMYKRNVMILTNPVAAKKNVSINTVTYEWAPPVQNQALARQYMQMLPKEKQPVAGSEGAQYRKKQLAKQLPAHDQDPSKCHELSPKEVKEMEQFVKKYKSEALGVGDVKFPSEMNAQGDKVHNPAGDRHAPAAVASKDKSAESKKTQYSCYCCKHTMNEGEPAIYAERAGYDKLWHPACFICSTCGELLVDMIYFWKNGKLYCGRHYCDSEKPRCAGCDELIFSNEYTQAENQNWHLKHFCCFDCDHILAGKIYVMVTDKPVCKPCYVKNHAVVCQGCHNAIDPEVQRVTYNNFSWHASTECFLCSCCSKCLIGQKFMPVEGMVFCSVECKRMMS”, the “soluble on expression in E. coli” value is given as “soluble”.

For the sequence “MRLYMEMTNAQRLILSNQYFLMSQLDPNNANKYKRLQTIVERGYELHMRELNREFGCLPETECREIIDIMEMYHAMQESNRMLDDAARKDVDQRRLTFLGFDMATEAQLVNYVRFLVDSEGLYPQFDKGEHHFNSQMPMLAKYRRMLTTWRNCPRQYHLSGNELRQIMNA”, the “soluble on expression in E. coli” value was “not soluble”.

“MCGKFTLFSEFDDIIEQFNIDQFLPEGEYHPSYNVAPSQNILTIINDGSNNRLGKLRWGLIPPCAKDEKIGYKMINARAETLAEKPSFRKPLGSKRCIIPADSFYEWKRLDPKTKIPMRIKLKSSNLFAFAGLYEKWNTLEGNLLYTCTIITIKPSELMEDIHDRMPVILTDENKKEWLNPKNTDPDYLQSLLLPYDADDMEAYQVSSLVNSPELIESHLEHHHHHH”: the “soluble on expression in E. coli” value was “not soluble”.

For the sequence “MMKPVLHFSKLYEVKKLLRKSRLYTVCEESRCPNISECFGNKTATFMILGNRCTRRCAFCNVEKGFPKGVDPEEPYRLLEAVKTLGLKYVVITSVTRDDLPDGGASHFAKCIRVLKENIEDIKVEVLIPDFRGNKKALEVVLKEKPVVLNHNVETVPRLYPSVRIGANYKRSLNILKWSKEIDKSVYTKSALILGFGERKEEVIKVMEDLRSVDCDFLVLGQYYQPSLKHHPVVKYYSEEEFKEFEEIGYEMGFKFVVSKPNARSSYKAFESLLSTLEHHHHHH”, the “soluble on expression in E. coli” value is given as “not soluble”.

“AHHHHHHGSSMELFEVHEGKAKVLVPKAKTIYDSPVFYNPRMAPNRDVVVLLLNVLKPKIVLDALSATGIRGIRFALETPAEEIWMNDINELAYELMKKNVLLNFKGTLKENAKRAIFEGEKTIVINNDDANRLMAEKHRYFHFIDLDPFGSPMEFLDTALRSVKRKGILGVTATDGAPLCGAHPKACLRKYLAVPLRGELCHEVGTRILVGVIARYAAKYDLGMEVLLAYYKDHYFRAFVKLKDGAKKGDETLENLGYVYFDEKTGRFEVEKSFLSTRPNAYGPLWLGPLKNEKVVGEMLELLVSGFEVANYREVLKLLHMLHEELDIPLFYDTHALGKRLKIEPKKLGEIIKELKSMGYEATRTHFSPTGIKTNAPYEVFVEVMRKN”: the “soluble on expression in E. coli” value was “soluble”.

With “MGSDKIHHHHHHACVATAFSQTIEKENKIDVQKKNSSAEVSGRQLPEAKNIEPKLPDIEAKKLATDDKSMQTYGLTPSSPASGLSPYSYDFPALLESNPTLTDFYNFRQHSMNGQLSFIGSAEQKTYLGLGQYVAVNAGIRWIPSQRFFVEAGGDLSRQFYLALPIARQDIAGIYTRMRYSLVRNVRLNVWGQYFMGGNTPPPAYNPLFPHTGVGASISVDVKKNTEVSVGAEYQYDKKSREWKMETSGRVSIGF”, the “soluble on expression in E. coli” value is “not soluble”.

“GPGSMENKLLSAPQNTVNPIIEKKRVVSCGMCEVDTTKLLEELRKVKENLSEVIDECIFLENQCEMTEKRLKSELLDRDKRIADISSALMEMVKYTSLLERQVIASAFTTLGSAMKRAPAIDMCRNISLREVASAVRERGESSGSRSSAKRKTRNGALYSEAKMAEEKNAFLLSVDEACALVNGLLREKVNLAAKIGEVAFHVNNAIARGERTSPALPDASSENVDDLHQSILNLTKQLSACGNEGDEEKNLKQVPSQHTAETEEPRQPQGLIAEKEDNTSRPQSPSQTQPPAGLASLGPHILDISRSSLPAVSITTQKGEGECGDITTESLVKKLAAAEEKCMAVEKQSRREREELHAELAYLRNSSREEKEEYNTLIERLTVELEILVAENAVMRKRIKGRKHSRDKIE”: the “soluble on expression in E. coli” value is reported as “not soluble”.

On to “MTKTEGKTASAAVKDILLSNPDGLREVIRTVMQEVLEAEMDEALGAAKGERTPERLGYRSGHYGRTLITRVGKLELRVPQDRSGHFSTELFERYQRSERALVATLAEMYVQGVSTRKVKAITEELCGHAFSASSISAINKRLDESLKAFAERSLEEPFAYLILDARYEKVREAGVVMSQAVLIAVGIDWDGRRQILSVEMAGRESRSAWKDFLVRLKGRGLKGVELVVSDDHAGLVAAIGEVIPEAAWQRCYVHFLRNALDHLPRKHGDDCLQELRWLYDRRDLDEAKADLAAWLGKWSVRYPRLTSWVEETIEQTLTFFRLPRQHHKHLKSTNMLERLNEEIRRRTYVVRIFPNTESCLRLVRALAVETHENWMEANRYINMDDLREHKKLALRQAA”, for which the “soluble on expression in E. coli” value is “not soluble”.

In the case of “MITDLILHNHPRMKTITLNDNHIAHLNAKNTTKLEYLNLSNNNLLPTNDIDQLISSKHLWHVLVNGINNDPLAQMQYWTAVRNIIDDTNEVTIDLSGLNLTTQPPGLQNFTSINLDNNQFTHFDATNYDRLVKLSLNSNALESINFPQGRNVSITHISMNNNALRNIDIDRLSSVTYFSAAHNQLEFVQLESCEWLQYLNLSHNQLTDIVAGNKNELLLLDLSHNKLTSLHNDLFPNLNTLLINNNLLSEIKIFYSNFCNVQTLNAANNQLKYINLDFLTYLPSIKSLRLDNNKITHIDTNNTSDIGTLFPIIKQSKTLEHHHHHH”, the “soluble on expression in E. coli” value was “not soluble”.

For the sequence “MVRIDLGIKGKKVIVTAASKGIGFATAKRFLEEGAKVIISSHDENNLRKAYERLKNLGEVNYIIADLTKPSDVENLIKSGYSTLGGLDVLVYVTGSPKPGNLFELTNEDWINAFYLLLMSAVIAVREAGKLMKSGGRIILSTSMTLKEPLPNLDLSNVVRLSLAGLIKVAARELGEKGILVNGVMPGWTLTDRVDQLVKDRAKREGRSEEEIIRDITRDVPLKRIGKPEEVANVILFLASELSTYVNGVLIPVDGGLIKATL”, the “soluble on expression in E. coli” value is “soluble”.

Consider “MSKNVGKLVKIWNESEVLVDRKSKFQARCCPLQNQKDIPSILQELTQNNKSVSKASHMHMYAWRTAEVSNNLHLQQEQKKKGNKANKSNNSHVNKSRNITVQPKNIEQGCADCGEAGAGQRLLTLLERANIFNVLVIVTRWYGGTPLGSSRFRHISTCAVETLKKGGFLP”, for which the “soluble on expression in E. coli” value is reported as “soluble”.

Consider “MSLKILTIVVMSGNVISLNRPSANAAIRLGFTYEGRFRNHAIYKGRSRDTDWFSIIDSEWPVLKKRFENWLSPENFDEQGQQKRSLRDC”, for which the “soluble on expression in E. coli” value was “not soluble”.

Take “MAHHHHHHMVSDPSFCKKAPSSDLLGSNGRKVPPSFIAPPSSDVFLTSRRKTSFRNKSALTCLGKDVMSVSYGCGMRFRKAVRSGLSVFREAITLTDGGRHEGSHSRTSDSRPPQLSKRSMREIRRRIISPSYLEITSRTSTASSSTLRYIRLDFFKKTRRR”: the “soluble on expression in E. coli” value is “not soluble”.

In the case of “MGSDKIHHHHHHMERYNTMSGKKTESSDNIVLYPGLVKRLIEKGMEALKEKDAKKALTMFEQAEQYDAEPSQILFGKALCYVELGKLDDAVLLTDQMLRNDIGNYYDILQIHLSLLVQLGRYDEVVEMLDVVLAEDRLPAKHAESFYQLLHFSRQMVEDSPTYIKEPLSEELDLKETYDDINERDSLEQWHFLQQMRKHNNPADIRTLLSFVESESNDPALRSYALHMLTMHKVEKRVRIRKFDQEAEVIPVELNADEQQRFGNAVVEQLEARLAVENPSLFKMAEQLWWQFLYALYPFTPKPEQKDLWAGAVHVAVHESNGLPFDEEEIAGMYNCRVQQMLEKGEEIHFVETETFQGISGHSFR”, the “soluble on expression in E. coli” value was “not soluble”.

For the sequence “MGSDKIHHHHHHMRHELDNPHAHATNNPCIRCLRHADRYARAVVSMLEVFASDKAEAKHNLFLKEGLCDIDKTLRSNDKRDTLRERPRNQTSSAMTLSPEKRARVMQGEILIDLNWLPDGVIGAKGSVFVEAEPPVVWRMLTDYDHLHETMPKVISSRLLETNNQTRIIAQSGKSGIFIFEKTVNFTLKVEEVFPEHLWFSQIGGDFQVYEGEWQLEAVEGKNGHATLLSYQAEIKPDFFAPQFVVSFVQSQDLPTILRAIRSYCEARAKG”, the “soluble on expression in E. coli” value was “not soluble”.
